Assay results as given in patent publication US20240132577A1 (US Dept. of Health and Human Services, published 2024).
Several values for one entry are separate records, joined by “and”; a condition that tells them apart may be missing. Identical values can stand only once.

B1: Nb15-tri-IgG1 (Fc fusion)
chain: QVQLQESGGGLVQAGGSLRVSCAASGLPFSDYLMGWFRQAPGKEREYVAAISQNGGHTYADSVLGRFTISRDNAKNTVYLQMNMLTPGDTAVYSCAARRPGGGRWDAAHDYNYWGQGTQVTVSSGGGGSGGGGSGGGGSQVQLQESGGGLVQAGGSLRVSCAASGLPFSDYLMGWFRQAPGKEREYVAAISQNGGHTYADSVLGRFTISRDNAKNTVYLQMNMLTPGDTAVYSCAARRPGGGRWDAAHDYNYWGQGTQVTVSSGGGGSGGGGSGGGGSQVQLQESGGGLVQAGGSLRVSCAASGLPFSDYLMGWFRQAPGKEREYVAAISQNGGHTYADSVLGRFTISRDNAKNTVYLQMNMLTPGDTAVYSCAARRPGGGRWDAAHDYNYWGQGTQVTVSSDKTHTCPPCPAPELLGGPSVFLFPPKPKDTLMISRTPEVTCVWDVSHEDPEVKFNWYVDGVEVHNAKTKPREEQYNSTYRWSVLTVLHQDWLNGKEYKCKVSNKALPAPIEKTISKAKGQPREPQVYTLPPSREEMTKNQVSLTCLVKGFYPSDIAVEWESNGQPENNYKTTPPVLDSDGSFFLYSKLTVDKSRWQQGNVFSCSVMHEALHNHYTQKSLSLSPGKHHHHHH
B2: Nb17-tri-IgG1 (Fc fusion)
chain: QVQLQESGGGLVQTGGSLRLSCAASGRTFGIYRMGWFRQAPGKEREFVAAITSSADTAQYRDSVKGRFAISRDNAKNTLYLQMNSLKPEDTAIYYCAARDPTTLEYGNWGQGTQVTVSSGGGGSGGGGSGGGGSQVQLQESGGGLVQTGGSLRLSCAASGRTFGIYRMGWFRQAPGKEREFVAAITSSADTAQYRDSVKGRFAISRDNAKNTLYLQMNSLKPEDTAIYYCAARDPTTLEYGNWGQGTQVTVSSGGGGSGGGGSGGGGSQVQLQESGGGLVQTGGSLRLSCAASGRTFGIYRMGWFRQAPGKEREFVAAITSSADTAQYRDSVKGRFAISRDNAKNTLYLQMNSLKPEDTAIYYCAARDPTTLEYGNWGQGTQVTVSSDKTHTCPPCPAPELLGGPSVFLFPPKPKDTLMISRTPEVTCVWDVSHEDPEVKFNWYVDGVEVHNAKTKPREEQYNSTYRWSVLTVLHQDWLNGKEYKCKVSNKALPAPIEKTISKAKGQPREPQVYTLPPSREEMTKNQVSLTCLVKGFYPSDIAVEWESNGQPENNYKTTPPVLDSDGSFFLYSKLTVDKSRWQQGNVFSCSVMHEALHNHYTQKSLSLSPGKHHHHHH
B3: Nb19-tri-IgG1 (Fc fusion)
chain: QVQLQESGGGLVQAGGSLRLSCAASGSGFSIHAMGWYRQAPGKQREFVAVVGHKTNYADSVKGRFTISRDVGKNTVELQMNSLKVEDTAVYYCYCNTIVTMTGVPDAVWGQGTQVTVSSGGGGSGGGGSGGGGSQVQLQESGGGLVQAGGSLRLSCAASGSGFSIHAMGWYRQAPGKQREFVAVVGHKTNYADSVKGRFTISRDVGKNTVELQMNSLKVEDTAVYYCYCNTIVTMTGVPDAVWGQGTQVTVSSGGGGSGGGGSGGGGSQVQLQESGGGLVQAGGSLRLSCAASGSGFSIHAMGWYRQAPGKQREFVAVVGHKTNYADSVKGRFTISRDVGKNTVELQMNSLKVEDTAVYYCYCNTIVTMTGVPDAVWGQGTQVTVSSDKTHTCPPCPAPELLGGPSVFLFPPKPKDTLMISRTPEVTCVWDVSHEDPEVKFNWYVDGVEVHNAKTKPREEQYNSTYRWSVLTVLHQDWLNGKEYKCKVSNKALPAPIEKTISKAKGQPREPQVYTLPPSREEMTKNQVSLTCLVKGFYPSDIAVEWESNGQPENNYKTTPPVLDSDGSFFLYSKLTVDKSRWQQGNVFSCSVMHEALHNHYTQKSLSLSPGKHHHHHH
B4: Nb56-tri-IgG1 (Fc fusion)
chain: QVQLQESGGGLVQAGDSLRLSCVASERTFRRYGMGWFRQAPGKEREFVAAVDRSHTKTGYADFVKGRFTISTNYENMVYLQMNSLKPEDTAVYYCAAPSYEKGSDPTSWNTDRGYDYWGQGTQVTVSSGGGGSGGGGSGGGGSQVQLQESGGGLVQAGDSLRLSCVASERTFRRYGMGWFRQAPGKEREFVAAVDRSHTKTGYADFVKGRFTISTNYENMVYLQMNSLKPEDTAVYYCAAPSYEKGSDPTSWNTDRGYDYWGQGTQVTVSSGGGGSGGGGSGGGGSQVQLQESGGGLVQAGDSLRLSCVASERTFRRYGMGWFRQAPGKEREFVAAVDRSHTKTGYADFVKGRFTISTNYENMVYLQMNSLKPEDTAVYYCAAPSYEKGSDPTSWNTDRGYDYWGQGTQVTVSSDKTHTCPPCPAPELLGGPSVFLFPPKPKDTLMISRTPEVTCVWDVSHEDPEVKFNWYVDGVEVHNAKTKPREEQYNSTYRWSVLTVLHQDWLNGKEYKCKVSNKALPAPIEKTISKAKGQPREPQVYTLPPSREEMTKNQVSLTCLVKGFYPSDIAVEWESNGQPENNYKTTPPVLDSDGSFFLYSKLTVDKSRWQQGNVFSCSVMHEALHNHYTQKSLSLSPGKHHHHHH
B5: msNb12-tri-IgG2a (Fc fusion)
chain: QVKLEESGGGSVQAGGSLRLICTAPGLTHNNCGLDWYRRAPGKEREFVSSISADGTTSYADSVKGRFTISKDKVEDTVYLQMNSLKPEDTAIYSCKTAFPYFGNSCVLDYWGQGTSVTVSSGGGGSGGGGSGGGGSQVKLEESGGGSVQAGGSLRLICTAPGLTHNNCGLDWYRRAPGKEREFVSSISADGTTSYADSVKGRFTISKDKVEDTVYLQMNSLKPEDTAIYSCKTAFPYFGNSCVLDYWGQGTSVTVSSGGGGSGGGGSGGGGSQVKLEESGGGSVQAGGSLRLICTAPGLTHNNCGLDWYRRAPGKEREFVSSISADGTTSYADSVKGRFTISKDKVEDTVYLQMNSLKPEDTAIYSCKTAFPYFGNSCVLDYWGQGTSVTVSSEPKIPQPQPKPQPQPQPQPKPQPKPEPECTCPKCPAPELLGGPSVFLFPPKPKDTLMISRTPEVTCVWDVSHEDPEVKFNWYVDGVEVHNAKTKPREEQYNSTYRWSVLTVLHQDWLNGKEYKCKVSNKALPAPIEKTISKAKGQPREPQVYTLPPSREEMTKNQVSLTCLVKGFYPSDIAVEWESNGQPENNYKTTPPVLDSDGSFFLYSKLTVDKSRWQQGNVFSCSVMHEALHNHYTQKSLSLSPGKHHHHHH
B6: Nb6 (VHH)
VHH: QVQLQESGGGLVQAGGSLRLSCAASGNIANSNSMAWWRQTPGNQHERVAIISHGVTNYADSVKGRFTVSRDNAKNTLYLQMNNLKPEDTAAYYCYADLFGNTYWGQGTQVTVSS
B7: Nb7 (VHH)
VHH: QVQLQESGGGLVQAGDSLRLSCLSSERTFRRYGIAWFRQAPGKEREFVAAVDRSHSQTNYADFVQGRFTISTVYAKNMVYLQMNSLKPEDTAVYYCAAASYEKGSDYTSWNTDRGYDYWGQGTQVTVSS
B8: mNb35 (VHH)
VHH: QVQLVESGGGLVQAGGSLRLSCAASGRTFSKYAMGWFRQAPGKERKFVATISWSGDSAFYADSVKGRFTISRDNARNTVYLQMNSLKPEDTAVYYCTADRGMGYGDFMDYWGQGTSVTVSS
B9: Nb43 (VHH)
VHH: QVQLQESGGGLVQAGDSLKLSCAASGRTFSDSAMGWFRQAPGEEREFVAVITWNGGTTYYADSVKGRFTISRDDAKNTVYLQMNSLKPEDTAVYYCAADTSRWDYSLTYHYTREYNYWGQGTQVTVSS
B10: Nb47 (VHH)
VHH: QVQLQESGGGLVQAGGSLRLSCAASGRTLSRYSMSWFRQAPGKEREFVAGIRWSGSNTYYADSMKQRFTISQDNVKNTVHLQMNSLKPEDTAVYYCAATSRSDHYLNAVAWTLPNEYDYWGQGTQVTVSS

Target: SARS-CoV-2 S protein N501Y (on pseudotyped virus) (SARS-CoV-2, UniProt P0DTC2 14-1254)
Assay: cell-based or functional assay

| Binder | IC50 (variant pseudovirus neutralization) [nM] |
| --- | --- |
| B1 | 0.021 |
| B2 | 0.01 |
| B3 | 0.01 |
| B4 | 0.028 |
| B5 | 0.082 |

Target: T1, SARS-CoV-2 S protein (C-terminally truncated, on pseudotyped virus) (SARS-CoV-2 (Wuhan-Hu-1), UniProt P0DTC2 14-1254)
Assay: cell-based or functional assay

| Binder | IC50 (variant pseudovirus neutralization) [nM] |
| --- | --- |
| B1 | 0.073 |
| B2 | 0.015 |
| B3 | 0.012 |
| B4 | 0.043 |
| B5 | 0.091 |

Target: SARS-CoV-2 S protein E484K (on pseudotyped virus) (SARS-CoV-2, UniProt P0DTC2 14-1254)
Assay: cell-based or functional assay

| Binder | IC50 (variant pseudovirus neutralization) [nM] |
| --- | --- |
| B1 | 0.041 |
| B2 | 50 |
| B3 | 0.095 |
| B4 | 0.037 |
| B5 | 0.149 |

Target: SARS-CoV-2 S protein R683G (on pseudotyped virus) (SARS-CoV-2, UniProt P0DTC2 14-1254)
Assay: cell-based or functional assay

| Binder | IC50 (variant pseudovirus neutralization) [nM] |
| --- | --- |
| B1 | 0.013 |
| B2 | 0.004 |
| B3 | 0.003 |
| B4 | 0.008 |
| B5 | 0.178 |

Target: SARS-CoV-2 S protein K417N + E484K + N501Y (on pseudotyped virus) (SARS-CoV-2, UniProt P0DTC2 14-1254)
Assay: cell-based or functional assay

| Binder | IC50 (variant pseudovirus neutralization) [nM] |
| --- | --- |
| B1 | 0.03 |
| B2 | 47.4 |
| B3 | 0.115 |
| B4 | 0.014 |
| B5 | 0.09 |

Target: SARS-CoV-2 S protein K417N (on pseudotyped virus) (SARS-CoV-2, UniProt P0DTC2 14-1254)
Assay: cell-based or functional assay

| Binder | IC50 (variant pseudovirus neutralization) [nM] |
| --- | --- |
| B1 | 0.027 |
| B2 | 0.008 |
| B3 | 0.006 |
| B4 | 0.021 |
| B5 | 0.068 |

Target: T1, SARS-CoV-2 S protein (C-terminally …)
Assay: cell-based or functional assay
Remark: another data set of the same source

| Binder | IC50 (pseudovirus neutralization) | IC90 (pseudovirus neutralization) |
| --- | --- | --- |
| B6 | 141 ng/ml and 10.5 nM | 354 ng/ml and 26.3 nM |
| B7 | 43 ng/ml and 3.2 nM | 451 ng/ml and 33.4 nM |
| B8 | 209 ng/ml and 15.5 nM | 692 ng/ml and 51.3 nM |
| B9 | 281 ng/ml and 20.9 nM | 5330 ng/ml and 395 nM |
| B10 | 731 ng/ml and 54.2 nM | > 10000 ng/ml and > 500 nM |

Target: T1, SARS-CoV-2 S protein (C-terminally …)
Assay: cell-based or functional assay
Remark: another data set of the same source

| Binder | IC50 (pseudovirus neutralization) | IC90 (pseudovirus neutralization) |
| --- | --- | --- |
| B1 | 10 ng/ml and 142 nM | 26.9 ng/ml and 381 nM |
| B2 | 1.24 ng/ml and 18 nM | 4.7 ng/ml and 68.2 nM |
| B3 | 0.65 ng/ml and 9.38 nM | 3.96 ng/ml and 57.6 nM |
| B4 | 3.91 ng/ml and 54.5 nM | 18.6 ng/ml and 260 nM |
| B5 | 4.71 ng/ml and 64.8 nM | 74 ng/ml and 1.02 µM |
